Read-outs that look alike come from different tables or passages of the source. Square brackets hold non-standard residues; d marks the D form. Ends that are not written are not given here. βAla = NCCC(=O)O
Experiments:
canine PepT1 (cPepT1) [1] = biological target: T1, canine PepT1 (cPepT1) (canine, UniProt Q8WMX5 1-708); assay: cell-based or functional assay
T1 sequence: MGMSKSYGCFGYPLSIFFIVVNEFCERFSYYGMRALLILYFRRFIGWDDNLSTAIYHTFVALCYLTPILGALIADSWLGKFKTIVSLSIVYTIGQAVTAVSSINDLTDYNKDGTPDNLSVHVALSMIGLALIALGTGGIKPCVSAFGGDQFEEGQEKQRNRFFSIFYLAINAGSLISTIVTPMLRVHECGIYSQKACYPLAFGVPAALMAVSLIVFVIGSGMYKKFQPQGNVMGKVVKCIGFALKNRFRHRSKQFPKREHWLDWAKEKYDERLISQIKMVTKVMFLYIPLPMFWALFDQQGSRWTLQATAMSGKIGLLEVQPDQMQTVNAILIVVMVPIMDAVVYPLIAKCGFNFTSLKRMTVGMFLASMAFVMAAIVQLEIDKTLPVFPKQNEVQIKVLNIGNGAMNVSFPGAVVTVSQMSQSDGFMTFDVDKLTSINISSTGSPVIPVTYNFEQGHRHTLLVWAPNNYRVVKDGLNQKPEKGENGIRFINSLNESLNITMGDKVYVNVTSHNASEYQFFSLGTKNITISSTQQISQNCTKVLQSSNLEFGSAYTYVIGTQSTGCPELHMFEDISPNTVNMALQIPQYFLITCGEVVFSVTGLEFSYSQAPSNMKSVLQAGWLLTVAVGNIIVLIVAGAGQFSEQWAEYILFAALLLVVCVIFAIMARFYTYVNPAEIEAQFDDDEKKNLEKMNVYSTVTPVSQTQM

canine PepT1 (cPepT1) [2] = biological target: T1, canine PepT1 (cPepT1); assay: inhibition of H+-dependent 100 µM [3H]GlySar uptake by MDCK cells; Ki by graphical analysis of IC50 experiments; competitor GlySar
canine PepT1 (cPepT1) [3] = biological target: T1, canine PepT1 (cPepT1); assay: cell-based or functional assay; remark: listed apart in the source
canine PepT1 (cPepT1) [4] = biological target: T1, canine PepT1 (cPepT1); assay: cell-based or functional assay; remark: listed apart in the source

LeuMet (peptide)
% inhibition of H+-dependent GlySar uptake (100 µM substrate, 100 µM GlySar, MDCK cells; Leu-containing peptides experiment) (canine PepT1 (cPepT1) [1]): 80%

MetMet (peptide)
% inhibition of H+-dependent GlySar uptake (1 mM substrate, 100 µM GlySar, MDCK cells) (canine PepT1 (cPepT1) [1]): 100%

MetPhe (peptide)
% inhibition of H+-dependent GlySar uptake (1 mM substrate, 100 µM GlySar, MDCK cells) (canine PepT1 (cPepT1) [1]): 100%

TrpGlyGly (peptide)
% inhibition of H+-dependent GlySar uptake (1 mM substrate, 100 µM GlySar, MDCK cells) (canine PepT1 (cPepT1) [1]): 33% | inhibition of 100 µM GlySar uptake by 1 mM peptide, MDCK cells (canine PepT1 (cPepT1) [1]): 73%

TrpLeu (peptide)
% inhibition of H+-dependent GlySar uptake (100 µM substrate, 100 µM GlySar, MDCK cells; Leu-containing peptides experiment) (canine PepT1 (cPepT1) [1]): 94% | % inhibition of H+-dependent GlySar uptake (100 µM substrate, 100 µM GlySar, MDCK cells; Trp-containing peptides experiment) (canine PepT1 (cPepT1) [1]): 92% | % inhibition of H+-dependent GlySar uptake (1 mM substrate, 100 µM GlySar, MDCK cells) (canine PepT1 (cPepT1) [1]): 116% | % inhibition of pH 6.0 uptake, 10 mM competitor, collagen (canine PepT1 (cPepT1) [1]): 8% | % inhibition of pH 6.0 uptake, 10 mM competitor, poly-L-lysine (canine PepT1 (cPepT1) [1]): 8.1% | Glysylsarcosine uptake, pH 6.0, with 10 mM competitor, MDCK cells on collagen (pmol 30 min^-1 mg^-1 protein) (canine PepT1 (cPepT1) [1]): 5.21 | Glysylsarcosine uptake, pH 6.0, with 10 mM competitor, MDCK cells on poly-L-lysine (pmol 30 min^-1 mg^-1 protein) (canine PepT1 (cPepT1) [1]): 3.44 | inhibition of H+-dependent 100 µM GlySar uptake by 1 mM peptide, MDCK cells (canine PepT1 (cPepT1) [1]): 117% | inhibition of H+-dependent GlySar uptake by 10 mM peptide, MDCK cells on collagen (canine PepT1 (cPepT1) [1]): 92% | inhibition of H+-dependent GlySar uptake by 10 mM peptide, MDCK cells on poly-L-lysine (canine PepT1 (cPepT1) [1]): 92% | Ki (canine PepT1 (cPepT1) [2]): 200 nM

TrpTrp (peptide)
% inhibition of H+-dependent GlySar uptake (100 µM substrate, 100 µM GlySar, MDCK cells; Trp-containing peptides experiment) (canine PepT1 (cPepT1) [1]): 62% | % inhibition of H+-dependent GlySar uptake (1 mM substrate, 100 µM GlySar, MDCK cells) (canine PepT1 (cPepT1) [1]): 119% | Ki (canine PepT1 (cPepT1) [2]): 750 nM

glycylsarcosine (GlySar) (peptide)
Km of H+-dependent GlySar uptake by MDCK cells (FIG. 12 legend) (canine PepT1 (cPepT1) [1]): 1000 µM | apparent Km of H+-dependent GlySar uptake by MDCK cells grown in LHM (canine PepT1 (cPepT1) [1]): 1100 µM | apparent Km of total GlySar uptake by confluent MDCK cells, pH 6.0 (canine PepT1 (cPepT1) [1]): 4 mM | self-inhibition of 100 µM GlySar uptake by 1 mM GlySar, MDCK cells (canine PepT1 (cPepT1) [1]): 64%

B1: [Gly]4 (peptide)
peptide: GGGG
inhibition of H+-dependent 100 µM GlySar uptake by 1 mM peptide, MDCK cells (canine PepT1 (cPepT1) [3]): 23% | % inhibition of H+-dependent GlySar uptake (1 mM substrate, 100 µM GlySar, MDCK cells) (canine PepT1 (cPepT1) [4]): 19%

B2: [Gly]5 (peptide)
peptide: GGGGG
inhibition of H+-dependent 100 µM GlySar uptake by 1 mM peptide, MDCK cells (canine PepT1 (cPepT1) [3]): 7.3% | % inhibition of H+-dependent GlySar uptake (1 mM substrate, 100 µM GlySar, MDCK cells) (canine PepT1 (cPepT1) [4]): 9%

B3: LeuTrp (peptide)
peptide: LW
inhibition of H+-dependent 100 µM GlySar uptake by 1 mM peptide, MDCK cells (canine PepT1 (cPepT1) [3]): 114% | % inhibition of H+-dependent GlySar uptake (1 mM substrate, 100 µM GlySar, MDCK cells) (canine PepT1 (cPepT1) [4]): 113%

B4: Carnosine (β-AlaHis) (peptide)
peptide: [βAla]-His
% inhibition of H+-dependent GlySar uptake (1 mM substrate, 100 µM GlySar, MDCK cells) (canine PepT1 (cPepT1) [4]): 50%

B5: MetGlyMetMet (SEQ ID NO:10) (peptide)
peptide: MGMM
% inhibition of H+-dependent GlySar uptake (1 mM substrate, 100 µM GlySar, MDCK cells) (canine PepT1 (cPepT1) [4]): 50%
